Test in all cases: SPR; Biacore X100; biotinylated histone 3 peptides immobilised on a Biotin CAPture chip (about 10 RU); PHD finger flowed at 10 μl/min, 0.39-400 μM; 300 mM NaCl, 10 mM Tris pH 8, 0.05% Tween 20, 0.1 mM TCEP; equilibrium binding isotherm model
Assay [1] concerns the target histone 3 peptide monomethylated at lysine 4 (H3K4me1).
In assay [2] the target is histone 3 peptide trimethylated at lysine 4 (H3K4me3).
Assay [3] has as its target histone 3 peptide dimethylated at lysine 4 (H3K4me2).

Consider “MtING1PHD, PHD finger of Medicago ING1 (M180-K247) (domain or fragment)”, for which the Kd in assay [1] came to 126 µM; in assay [2], 31 µM; in assay [3], 54.5 µM.

The record behind these values is paper PMC9828230.
